{"source": "paper PMC9817077", "about": "“Simple, Reliable Protocol for High-Yield Solubilization of Seedless Amyloid-β Monomer” (ACS Chemical Neuroscience, 2022)", "key": {"[1]": {"assay": "Negative-stain electron microscopy (NS-EM)", "type": "physicochemical", "details": "4 μM", "description": "To perform a further test for the presence of seeds, and determine whether the detected oligomers affected the self-assembly kinetics, Aβ(1-42) samples were purified by SEC, and their self-assembly kinetics were compared to those of unpurified samples. In summary, following the protocol used by Hellstrand et al.,[39] […] The fraction eluting from 13.6 to 14.6 min (at 1 mL/min) was collected on ice, diluted variably (60, 80, or 100%, i.e., undiluted) in the elution buffer to give a range of concentrations, supplemented with ThT from a concentrated stock, and used in ThT assays. This purification procedure was repeated several times with reproducible results, and a representative elugram is shown in Figure 6a. The UV absorbance and RI elugrams are very similar to those previously reported for in-house recombinant peptide purified according to the same protocol,[39] and the peak at ∼14 min has already been identified as the monomer. […]\nThe resulting sample was deposited on grids immediately, or after incubation for 1 h in a 96-well plate treated with a PEG-like low-binding surface (Corning 3881, NY), at 37 °C. […] Micrographs were recorded with a 1024 × 1024 px Gatan CCD camera, and images were analyzed using FIJI.[100],[101]"}, "[2]": {"assay": "SEC-MALS purification and analysis on Superdex 75", "type": "physicochemical", "description": "To perform a further test for the presence of seeds, and determine whether the detected oligomers affected the self-assembly kinetics, Aβ(1-42) samples were purified by SEC, and their self-assembly kinetics were compared to those of unpurified samples. In summary, following the protocol used by Hellstrand et al.,[39] […] The fraction eluting from 13.6 to 14.6 min (at 1 mL/min) was collected on ice, diluted variably (60, 80, or 100%, i.e., undiluted) in the elution buffer to give a range of concentrations, supplemented with ThT from a concentrated stock, and used in ThT assays. This purification procedure was repeated several times with reproducible results, and a representative elugram is shown in Figure 6a. The UV absorbance and RI elugrams are very similar to those previously reported for in-house recombinant peptide purified according to the same protocol,[39] and the peak at ∼14 min has already been identified as the monomer. MALS analysis of the ROI from 13.6 to 14.6 min was challenging, as the very weak scattering signal meant that the Mw estimates were particularly sensitive to baseline subtraction errors. Nonetheless, the average Mw value of this ROI across three concordant replicates was 6460 ± 712 Da, where the error margins represent one standard deviation, consistent with the peak containing mostly monomer with a small but significant amount of contaminating oligomer. […] Samples were analyzed and purified in small batches using an analytical Superdex 75 column (GE Healthcare) equilibrated in 20 mM sodium phosphate buffer (pH 8) with 200 μM EDTA and 1 mM NaN3. The column was run with the TIP pump from the AF4 system (Postnova Analytics, Landsberg am Lech, Germany), and in-line UV (280 nm; Shimadzu, U.K.), MALS (Postnova Analytics, Landsberg am Lech, Germany), and RI (Postnova Analytics, Landsberg am Lech, Germany) detectors. The RI detector was purged following equilibration, and the UV and RI detectors were then zeroed. The sample was injected, with an injection volume of 50 μL, and run at 1.0 mL/min for 35 min. Between sample runs, blanks consisting of the same solvent without the Aβ(1-42) were loaded to check that the column was clean and to allow blank subtraction of the detector signals. Data processing and estimation of sample concentration, molecular weight, and recovery were carried out in the AF2000 Control software (Postnova Analytics, Landsberg am Lech, Germany), with final data processing in GraphPad Prism version 8.3.0. For preparative runs, the sample was collected at the end. […] Eluted Aβ was mixed and split into three aliquots; these were then diluted to 60, 80, or 100% (i.e., undiluted) their concentration in the same elution buffer and supplemented with 20 μM ThT from a 2 mM stock, as described in Hellstrand et al.[39] […]"}}}
{"substance": "Aβ(1-42): Ultrapure recombinant Aβ(1-42) purchased from rPeptide, lyophilized from HFIP; disordered amyloid-forming peptide", "values": [{"measurement": "fibrillar species by NS-EM immediately after dilution", "setting": "[1]; 50 mM NaOH sample diluted into pre-adjusted fibrillization buffer pH 8", "value": "did not reveal any fibrillar species"}, {"measurement": "fibrillar species by NS-EM after incubation", "setting": "[1]; ∼1 h under fibrillization conditions, 37 °C, early growth phase", "value": "fibrils were observed"}, {"measurement": "average Mw of the SEC ROI from 13.6 to 14.6 min", "setting": "[2]; 50 mM NaOH sample, Superdex 75, 20 mM sodium phosphate pH 8, 200 μM EDTA, 1 mM NaN3, 1 mL/min, three concordant replicates, ± SD", "value": "6460 ± 712", "unit": "Da"}, {"measurement": "total mass of Aβ(1-42) in the fraction collected from 13.6 to 14.6 min", "setting": "[2]; 50 μL of 1 mg/mL injected, Superdex 75, pH 8", "value": "28.4 ± 7.13", "unit": "µg"}, {"measurement": "concentration of the collected monomer fraction", "setting": "[2]; fraction 13.6–14.6 min", "value": 6.29, "unit": "µM"}, {"measurement": "recovery in the collected monomer fraction", "setting": "[2]; fraction 13.6–14.6 min, 50 μL of 1 mg/mL injected", "value": "56.8 % of the injected mass"}]}
